Measured values: patent US20110130348

Experiments:
[1] = biological target: T1, LAP1 (rationally designed Lp1A acceptor peptide)
T1 chain: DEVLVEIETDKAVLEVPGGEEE

[2] = biological target: T2, synthetic LAP2 peptide (Lp1A acceptor peptide 2)
T2 chain: GFEIDKVWYDLDA

[3] = biological target: HP1 with LAP2 fused to its C-terminus (LAP2-C)
[4] = biological target: LAP2-HP1 fusion protein (LAP2 at the N-terminus of HP1)

B1: Escherichia coli lipoic acid ligase (Lp1A) (protein)
chain: MSTLRLLISDSYDPWFNLAVEECIFRQMPATQRVLFLWRNADTVVIGRAQNPWKECNTRRMEEDNVRLARRSSGGGAVFHDLGNTCFTFMAGKPEYDKTISTSIVLNALNALGVSAEASGRNDLVVKTVEGDRKVSGSAYRETKDRGFHHGTLLLNADLSRLANYLNPDKKKLAAKGITSVRSRVTNLTELLPGITHEQVCEAITEAFFAHYGERVEAEIISPNKTPDLPNFAETFARQSSWEWNFGQAPAFSHLLDERFTWGGVELHFDVEKGHITRAQVFTDSLNPAPLEALAGRLQGCLYRADMLQQECEALLVDFPEQEKELRELSAWMAGAVR
Km (estimate from HPLC measurements) [1]: the Km for LAP1 is estimated to be >200 µM | Km of Lp1A-catalyzed lipoylation (HPLC, Michaelis-Menten) [2]: 13.32 ± 1.78 µM | catalytic efficiency (kcat/Km) for lipoic acid ligation [2]: The catalytic efficiency (kcat/Km) 0.99 µM^-1 min^-1) | kcat of Lp1A-catalyzed lipoylation (HPLC, Michaelis-Menten) [2]: 0.22 ± 0.01 s⁻¹ | percent conversion to lipoylated product (HPLC, 50 nM Lp1A, 1 h) [3]: When fused to the C- rather than N-terminus of HP1, the activity of LAP2 decreased somewhat, but was still higher than all other LAP sequences at the N-terminus | percent conversion to lipoylated product (HPLC, 50 nM Lp1A, 1 h) [4]: As in the cellular assays, LAP2 is the best sequence
